What all share (assay): fluorescence quenching
The target of data set [1] is T1, hparp486 (Homo sapiens, UniProt P09874 1-486).
The target of data set [2] is T1, hparp486. This is another data set of the same source.
The target of data set [3] is T1, hparp486. The source holds these as a separate data set.

Like-named read-outs stand apart in the source and are kept apart here.

T1 sequence (P09874 1-486): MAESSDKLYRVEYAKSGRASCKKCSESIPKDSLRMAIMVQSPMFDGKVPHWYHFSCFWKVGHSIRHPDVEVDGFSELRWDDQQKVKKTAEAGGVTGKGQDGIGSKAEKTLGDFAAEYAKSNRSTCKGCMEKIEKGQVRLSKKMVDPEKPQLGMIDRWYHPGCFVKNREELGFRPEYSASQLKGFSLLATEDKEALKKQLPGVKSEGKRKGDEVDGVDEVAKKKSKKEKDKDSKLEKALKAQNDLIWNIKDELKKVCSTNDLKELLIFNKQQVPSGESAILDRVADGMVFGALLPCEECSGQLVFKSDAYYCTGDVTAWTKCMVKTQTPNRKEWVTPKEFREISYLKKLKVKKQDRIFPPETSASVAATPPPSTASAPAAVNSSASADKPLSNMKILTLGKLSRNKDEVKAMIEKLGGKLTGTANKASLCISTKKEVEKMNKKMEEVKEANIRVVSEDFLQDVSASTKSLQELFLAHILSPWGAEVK

B1: 30Blunt (dsDNA)
DNA 1: ATCAGATAGCATCTGTGCGGCCGCTTAGGG
DNA 2: CCCTAAGCGGCCGCACAGATGCTATCTGAT
As for B1, binding in the data set with hparp486 [1] was characterised by a dissociation constant (Kd) of 282 nM.

B2: 30Ext (pos. B) (dsDNA)
DNA 1: ATCAGATAGCATCTGTGCGGCCGCTTAGGGTTAGGG
DNA 2: B1 DNA 2
Regarding B2, the Kd – broadly, a measure of binding affinity in units of concentration – with hparp486 [2] came to 130 nM.

B3: 30Ext (pos. A) (dsDNA)
DNA 1: B2 DNA 1
DNA 2: B1 DNA 2
B3 yielded a Kd with hparp486 [3] of 68 nM.

Values taken from article PMC2864582.
